Test results from patent US20160303183A1 (WUHAN YICHENG BIOTECH, published 2016).

Biological target: T1, proliferating cell nuclear antigen (PCNA) (human, UniProt P12004 1-261)
T1 construct: Endogenous intracellular protein, immunoprecipitated from HT29 cell lysate
Assay: not described

T1 sequence (P12004 whole entry): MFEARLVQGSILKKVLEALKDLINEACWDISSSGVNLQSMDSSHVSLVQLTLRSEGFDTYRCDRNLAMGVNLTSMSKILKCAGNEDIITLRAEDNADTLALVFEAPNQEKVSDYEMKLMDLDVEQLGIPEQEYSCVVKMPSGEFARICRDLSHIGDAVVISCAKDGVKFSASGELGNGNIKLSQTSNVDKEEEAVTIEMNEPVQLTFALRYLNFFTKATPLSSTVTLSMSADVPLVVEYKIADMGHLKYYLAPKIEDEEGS

binding result: binds
Binder: MPYSTELIFYIEMDP (15-residue polypeptide fragment) [polypeptide P15]
